Publication PMC10349104
“And” between values parts separate entries of the source, which are not always exact repeats. Identical values can stand only once.

Assays:
Test in all cases: SPR
[1] = biological target: EVA-A(21-102) (A. americanum)
[2] = biological target: EVA-A(L39P) (A. americanum)
[3] = biological target: EVA-A(DN) (Amblyomma americanum)
[4] = biological target: EVA-A(Y44A) (A. americanum)
[5] = biological target: EVA-A(1-98) (A. americanum)
[6] = biological target: EVA-A(L39P) (Amblyomma americanum)
[7] = biological target: EVA-A(Y44A) (Amblyomma americanum)
[8] = biological target: EVA-A(DC) (Amblyomma americanum)
[9] = biological target: EVA-A(C8) (A. americanum)
[10] = biological target: EVA-A(C8) (Amblyomma americanum)

Sequence of CCL1 (P22362 24-96): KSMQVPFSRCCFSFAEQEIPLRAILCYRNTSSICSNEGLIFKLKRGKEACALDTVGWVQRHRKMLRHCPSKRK
Sequence of CCL17 (Q92583 24-94): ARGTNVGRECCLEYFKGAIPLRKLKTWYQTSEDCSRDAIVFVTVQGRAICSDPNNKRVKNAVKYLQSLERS
Sequence of CCL13 (Q99616 17-98): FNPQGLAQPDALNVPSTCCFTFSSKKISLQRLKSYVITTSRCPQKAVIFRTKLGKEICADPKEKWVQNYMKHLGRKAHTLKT
Sequence of CCL11 (P51671 24-97): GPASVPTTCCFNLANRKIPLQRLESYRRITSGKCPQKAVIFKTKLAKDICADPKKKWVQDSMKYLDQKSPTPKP
Sequence of CCL22 (O00626 25-93): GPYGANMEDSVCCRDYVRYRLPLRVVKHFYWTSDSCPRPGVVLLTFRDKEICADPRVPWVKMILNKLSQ
Sequence of CCL23 (P55773 22-120): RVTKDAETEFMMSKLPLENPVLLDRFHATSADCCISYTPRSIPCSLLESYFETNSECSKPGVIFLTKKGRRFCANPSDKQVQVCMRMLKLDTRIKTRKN
Sequence of CCL21 (O00585 24-134): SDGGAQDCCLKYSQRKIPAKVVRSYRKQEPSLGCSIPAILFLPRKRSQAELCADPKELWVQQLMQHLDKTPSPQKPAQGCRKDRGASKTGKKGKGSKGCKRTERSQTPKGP

CCL21 (from UniProt O00585 24-134) (ligand)
Kd [1]: 47.5 nM | koff [1]: 0.0106 s⁻¹ | kon [1]: 224000 M⁻¹ s⁻¹ | Kd [2]: 24.5 nM | koff [2]: 0.00484 s⁻¹ | kon [2]: 197000 M⁻¹ s⁻¹ | Kd [3]: 51.1 nM and 51.4 nM and 40 nM | koff [3]: 0.0125 s⁻¹ and 0.0092 s⁻¹ and 0.00995 s⁻¹ | kon [3]: 245000 M⁻¹ s⁻¹ and 179000 M⁻¹ s⁻¹ and 248000 M⁻¹ s⁻¹ | Kd [4]: 119 nM | koff [4]: 0.00356 s⁻¹ | kon [4]: 36000 M⁻¹ s⁻¹ | Kd [5]: 17.8 nM | koff [5]: 0.00233 s⁻¹ | kon [5]: 126000 M⁻¹ s⁻¹ | Kd [6]: 24.3 nM and 19.8 nM and 29.4 nM | koff [6]: 0.00331 s⁻¹ and 0.00445 s⁻¹ and 0.00676 s⁻¹ | kon [6]: 136000 M⁻¹ s⁻¹ and 225000 M⁻¹ s⁻¹ and 230000 M⁻¹ s⁻¹ | Kd [7]: 135 nM and 40.8 nM and 180 nM | koff [7]: 0.00431 s⁻¹ and 0.00219 s⁻¹ and 0.00417 s⁻¹ | kon [7]: 32000 M⁻¹ s⁻¹ and 53800 M⁻¹ s⁻¹ and 23100 M⁻¹ s⁻¹ | Kd [8]: 30.1 nM and 12.1 nM and 11.4 nM | koff [8]: 0.00233 s⁻¹ and 0.00174 s⁻¹ and 0.00177 s⁻¹ | kon [8]: 77500 M⁻¹ s⁻¹ and 144000 M⁻¹ s⁻¹ and 154000 M⁻¹ s⁻¹

CCL15 (ligand)
Kd [8]: 30.9 nM and 32.9 nM and 31.2 nM | koff [8]: 0.00162 s⁻¹ and 0.00173 s⁻¹ and 0.00167 s⁻¹ | kon [8]: 52500 M⁻¹ s⁻¹ and 52700 M⁻¹ s⁻¹ and 53700 M⁻¹ s⁻¹

CCL1 (from UniProt P22362 24-96) (ligand)
Kd [1]: 457 nM | koff [1]: 0.18 s⁻¹ | kon [1]: 268000 M⁻¹ s⁻¹ | Kd [2]: 57.5 nM | koff [2]: 0.00167 s⁻¹ | kon [2]: 17000 M⁻¹ s⁻¹ | Kd [3]: 686 nM and 369 nM and 318 nM | Kd [4]: 49.9 nM | koff [4]: 0.00256 s⁻¹ | kon [4]: 57000 M⁻¹ s⁻¹ | Kd [5]: 406 nM | koff [5]: 0.00168 s⁻¹ | kon [5]: 6000 M⁻¹ s⁻¹ | Kd [6]: 44.7 nM and 48.2 nM and 79.6 nM | koff [6]: 0.000863 s⁻¹ and 0.00063 s⁻¹ and 0.00153 s⁻¹ | kon [6]: 19300 M⁻¹ s⁻¹ and 13100 M⁻¹ s⁻¹ and 19200 M⁻¹ s⁻¹ | Kd [7]: 30.2 nM and 67.9 nM and 51.6 nM | koff [7]: 0.00285 s⁻¹ and 0.00348 s⁻¹ and 0.00135 s⁻¹ | Kd [8]: 327 nM and 241 nM and 650 nM | koff [8]: 0.00168 s⁻¹ and 0.00255 s⁻¹ and 0.00199 s⁻¹

CCL14 (ligand)
kon [8]: 206000 M⁻¹ s⁻¹ and 297000 M⁻¹ s⁻¹ and 214000 M⁻¹ s⁻¹

CCL11 (from UniProt P51671 24-97) (ligand)
Kd [1]: 507 nM | koff [1]: 0.218 s⁻¹ | kon [1]: 454000 M⁻¹ s⁻¹ | Kd [2]: 3.32 nM | koff [2]: 0.00372 s⁻¹ | kon [2]: 1.4e+06 M⁻¹ s⁻¹ | Kd [3]: 750 nM and 383 nM and 390 nM | koff [3]: 0.264 s⁻¹ and 0.203 s⁻¹ and 0.187 s⁻¹ | kon [3]: 352000 M⁻¹ s⁻¹ and 531000 M⁻¹ s⁻¹ and 480000 M⁻¹ s⁻¹ | Kd [9]: 663 nM | koff [9]: 0.196 s⁻¹ | kon [9]: 236000 M⁻¹ s⁻¹ | Kd [4]: 1.73 nM | koff [4]: 0.0015 s⁻¹ | kon [4]: 877000 M⁻¹ s⁻¹ | Kd [10]: 842 nM and 836 nM and 312 nM | Kd [5]: 487 nM | koff [5]: 0.0537 s⁻¹ | kon [5]: 101000 M⁻¹ s⁻¹ | Kd [6]: 3.46 nM and 2.95 nM and 3.55 nM | koff [6]: 0.00417 s⁻¹ and 0.00433 s⁻¹ and 0.00541 s⁻¹ | kon [6]: 1.2e+06 1/(M s) and 1.5e+06 1/(M s) (2×) | Kd [7]: 1.67 nM and 1.9 nM and 1.61 nM | koff [7]: 0.00144 s⁻¹ and 0.00137 s⁻¹ and 0.00169 s⁻¹ | kon [7]: 862000 M⁻¹ s⁻¹ and 719000 M⁻¹ s⁻¹ and 1.05e+06 M⁻¹ s⁻¹ | Kd [8]: 481 nM and 474 nM and 507 nM | koff [8]: 0.0537 s⁻¹ and 0.0345 s⁻¹ and 0.0604 s⁻¹ | kon [8]: 112000 M⁻¹ s⁻¹ and 72900 M⁻¹ s⁻¹ and 119000 M⁻¹ s⁻¹

CCL13 (from UniProt Q99616 17-98) (ligand)
Kd [1]: 0.3 nM | koff [1]: 0.00087 s⁻¹ | kon [1]: 2.94e+06 M⁻¹ s⁻¹ | Kd [2]: < 0.1 nM | koff [2]: < 0.0001 s⁻¹ | kon [2]: 3.26e+06 M⁻¹ s⁻¹ | Kd [3]: 0.298 nM and 0.304 nM and 0.285 nM | koff [3]: 0.000931 s⁻¹ and 0.000845 s⁻¹ and 0.000833 s⁻¹ | kon [3]: 3.12e+06 M⁻¹ s⁻¹ and 2.78e+06 M⁻¹ s⁻¹ and 2.92e+06 M⁻¹ s⁻¹ | Kd [9]: 2.91 nM | koff [9]: 0.00423 s⁻¹ | kon [9]: 1.47e+06 M⁻¹ s⁻¹ | Kd [4]: < 0.1 nM | koff [4]: < 0.0001 s⁻¹ | kon [4]: 2.68e+06 M⁻¹ s⁻¹ | Kd [10]: 2.74 nM and 3.26 nM | koff [10]: 0.00454 s⁻¹ and 0.00359 s⁻¹ | kon [10]: 1.66e+06 M⁻¹ s⁻¹ and 1.1e+06 M⁻¹ s⁻¹ | Kd [5]: 1.42 nM | koff [5]: 0.00063 s⁻¹ | kon [5]: 458000 M⁻¹ s⁻¹ | Kd [6]: 0.0116 nM and 0.0158 nM and 0.035 nM | kon [6]: 2.5e+06 M⁻¹ s⁻¹ and 4.09e+06 M⁻¹ s⁻¹ and 3.18e+06 M⁻¹ s⁻¹ | Kd [7]: 0.0154 nM and 0.0339 nM and 0.0439 nM | koff [7]: 5.53e-05 s⁻¹ and 6.98e-05 s⁻¹ and 0.000105 s⁻¹ | kon [7]: 3.58e+06 M⁻¹ s⁻¹ and 2.06e+06 M⁻¹ s⁻¹ and 2.4e+06 M⁻¹ s⁻¹ | Kd [8]: 1.4 nM (2×) and 1.45 nM | koff [8]: 0.000625 s⁻¹ and 0.000669 s⁻¹ and 0.000651 s⁻¹ | kon [8]: 448000 M⁻¹ s⁻¹ and 461000 M⁻¹ s⁻¹ and 466000 M⁻¹ s⁻¹

CCL11(F11A) (from UniProt P51671 24-97) (ligand)
Kd [2]: 0.51 nM | koff [2]: 0.00035 s⁻¹ | kon [2]: 707000 M⁻¹ s⁻¹ | Kd [4]: 2.83 nM | koff [4]: 0.00226 s⁻¹ | kon [4]: 802000 M⁻¹ s⁻¹ | Kd [6]: 0.424 nM and 0.602 nM and 0.499 nM | koff [6]: 0.000383 s⁻¹ and 0.000365 s⁻¹ and 0.000304 s⁻¹ | kon [6]: 904000 M⁻¹ s⁻¹ and 606000 M⁻¹ s⁻¹ and 610000 M⁻¹ s⁻¹ | Kd [7]: 2.64 nM and 2.95 nM and 2.91 nM | koff [7]: 0.00233 1/s (2×) and 0.00213 1/s | kon [7]: 884000 M⁻¹ s⁻¹ and 722000 M⁻¹ s⁻¹ and 801000 M⁻¹ s⁻¹

CCL23 (from UniProt P55773 22-120) (ligand)
Kd [1]: 0.51 nM | koff [1]: 4e-05 s⁻¹ | kon [1]: 87000 M⁻¹ s⁻¹ | Kd [2]: 1.14 nM | koff [2]: 0.00067 s⁻¹ | kon [2]: 140000 M⁻¹ s⁻¹ | Kd [9]: 20.3 nM | koff [9]: 0.00131 s⁻¹ | kon [9]: 74000 M⁻¹ s⁻¹ | Kd [4]: 18.8 nM | koff [4]: 0.00176 s⁻¹ | kon [4]: 100000 M⁻¹ s⁻¹ | Kd [5]: 0.45 nM | koff [5]: 2e-05 s⁻¹ | kon [5]: 144000 M⁻¹ s⁻¹

CCL22 (from UniProt O00626 25-93) (ligand)
Kd [1]: 61.6 nM | koff [1]: 0.00161 s⁻¹ | kon [1]: 26000 M⁻¹ s⁻¹ | Kd [2]: 1.46 nM | koff [2]: 0.00292 s⁻¹ | kon [2]: 1.03e+06 M⁻¹ s⁻¹ | Kd [3]: 64.9 nM and 73.9 nM and 46 nM | koff [3]: 0.00186 s⁻¹ and 0.00173 s⁻¹ and 0.00125 s⁻¹ | kon [3]: 28700 M⁻¹ s⁻¹ and 23400 M⁻¹ s⁻¹ and 27200 M⁻¹ s⁻¹ | Kd [4]: 11.2 nM | koff [4]: 0.00818 s⁻¹ | kon [4]: 766000 M⁻¹ s⁻¹ | Kd [5]: 125 nM | koff [5]: 0.00084 s⁻¹ | kon [5]: 29000 M⁻¹ s⁻¹ | Kd [6]: 1.64 nM and 1.17 nM and 1.57 nM | koff [6]: 0.00125 s⁻¹ and 0.00151 s⁻¹ and 0.00165 s⁻¹ | kon [6]: 763000 M⁻¹ s⁻¹ and 1.28e+06 M⁻¹ s⁻¹ and 1.05e+06 M⁻¹ s⁻¹ | Kd [7]: 6.2 nM and 14.4 nM and 13.1 nM | koff [7]: 0.0056 s⁻¹ and 0.00713 s⁻¹ and 0.0118 s⁻¹ | kon [7]: 903000 M⁻¹ s⁻¹ and 496000 M⁻¹ s⁻¹ and 899000 M⁻¹ s⁻¹ | Kd [8]: 125 nM | kon [8]: 37600 M⁻¹ s⁻¹ and 12800 M⁻¹ s⁻¹

CCL17 (from UniProt Q92583 24-94) (ligand)
Kd [1]: 1.04 nM | Kd [2]: 7.49 nM | Kd [3]: 1.06 nM and 1.05 nM and 1.01 nM | Kd [9]: 97.1 nM | Kd [4]: 61.9 nM | Kd [10]: 77 nM and 67.5 nM and 147 nM | Kd [5]: < 0.1 nM | Kd [6]: 3.31 nM and 3.25 nM and 15.9 nM | Kd [7]: 65.8 nM and 104 nM and 15.8 nM
